From US20060172367

Experiments:
[1] = target: T1, fructosyl valine-leucine-serine
T1 chain: VLS

[2] = target: T2, fructosyl valine-histidine
T2 chain: VH

fructosyl valine-leucine = target: T3, fructosyl valine-leucine
T3 chain: VL

[3] = target: T4, fructosyl valine-histidine-leucine
T4 chain: VHL

B1: fructosylamine oxidase FAO-Q2 from Fusarium proliferatum GL2-1 strain (protein)
chain: MARTVAPLNKDSGILIVGGGTWGCSTALHLARRGYTNVTVLDVNRIPSPISAGHDVNKLSNRLGTSDSKGDDEDSIWKALTYAAAQGWLHDPIFQPFCHNTGAVMAGSTPKSIKQLVEDEIGDDIDQYTPLNTAEDFRRTMPERILTGDFLGWKGFYKPRGSGWVHARKAMKAAFEESQRLGVKFITGSPEGKVESLVFEAGDVKGAKTADGKEHRADRTILSAGASAEFSLDFENQIRPTAWTLGHIQMTAEETKLYKELPPLFNINQGFFMEPDEDLHQLKMCDEHPGYCNWVDKPGSKYPQSIPFAKYQVPIEAERRMKQFLKDIMPQLADRPLVHARICWCADTQDRMFLITYHPRHPSLVIASGDCGTGYKHITSIGKFISDCMEGTLEERFAKFWRWRPEKFTEFWGKDPLDRFGADDKIMDLPKSDAEGWTDIQNDK
Relative activity (%) [1]: 3.3% | Relative activity (%) [2]: 2.4% | Relative activity (%) (fructosyl valine-leucine): 0.6% | Relative activity (%) [3]: 0.6%

B2: fructosylamine oxidase FAO-Q1 from Fusarium proliferatum GL2-1 strain (protein)
chain: MAGPPSSILIVGSGVFGLGTAWALAKRSHFSNTSITVVDDCAGQFPPEDAASVDSSRIVRADYSDPYYAALAAEAQKEWRKQGDHEVGGQGRYSESGFVLCASETPEDFKLKKSGMDYTKESAKNVELIAKETGLPVDKIQKLESTKALQEFLGTDGYPGDWGYLNGNSGWADAGEGMKWLYKQAQATGRIHFVNGKVTELVTEGDRVIGAKLSDSKILKADVVMVAAGAWSGSLVDLRGRTEATGHAVAYMDITPEEQKRLDNFPVVLNLSTGLFLIPPRNNVLKAARHTFGYINPVKINNALPPSPNDKREPFIASQPYTSRNDSSNPLTVEADKDLRRALTDLCPIRGLETRPWKEARICWYSDTRDGEWLIDYHPGWKGLFVATGDSGHGFKFLPNLGEKIVDVMQGQGGKLGEKWRWKEIQNDGVGRETNGVYTGLVTEDGSRGGRPLVLCDELEKGRALIGNTKAKL
Relative activity (%) (fructosyl valine-leucine): 1.1%
